Assay: protein stability index of a GFP-peptide fusion (GPS, HEK-293T) (PSI 1-6); higher = more stable
Details: c terminus: a fixed tail appended
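Further: lentivirally expressed fusions sorted by FACS into six bins by GFP to DsRed ratio, PSI derived from sequencing read proportions per bin multiplied by bin number.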

B1: MLL5 WT (peptide)
chain: EQIAERKRKMVSWEASSLGLVTAA
protein stability index (parent: IOH39874_95): 2.83

B2: MED27 WT (peptide)
chain: YNENVYTEDGKLDIWSKSNYQVFQ
protein stability index (parent: IOH39902_37): 2.11

B3: SPRY1 WT (peptide)
chain: WIHRPGCRCKNSNTVYCKLESCPS
protein stability index (parent: IOH39997_49): 2.19

B4: C8orf76 WT (peptide)
chain: YCAKLCEPQWFYEETESSDDVEVL
protein stability index (parent: IOH40091_6): 2.25

B5: C8orf76 WT (peptide)
chain: LYLQLAICSSLQNLEKTIFCLQKL
protein stability index (parent: IOH40091_23): 2.99

B6: C8orf76 WT (peptide)
chain: KLAEAYLNLGPALSAALASSQKQH
protein stability index (parent: IOH40091_29): 2.78

B7: NECAB1 WT (peptide)
chain: NLDTEELCEYFSQHLGEYENVLAA
protein stability index (parent: IOH40093_14): 2.41

B8: NECAB1 WT (peptide)
chain: FSPNSPQFNVSGPGLLEEDNQWMT
protein stability index (parent: IOH40093_33): 2.95

B9: PWWP2B WT (peptide)
chain: TIRLRPRQVLCEKCKSTLSPPEAS
protein stability index (parent: IOH40143_16): 3.06

B10: HESX1 WT (peptide)
chain: ENKPSTCSFSIERILGLDQKKDCV
protein stability index (parent: IOH40237_3): 3.12

B11: HESX1 WT (peptide)
chain: QKKDCVPLMKPHRPWADTCSSSGK
protein stability index (parent: IOH40237_6): 3.2

B12: HESX1 WT (peptide)
chain: HVPNPPSGISFPSVVDHPMPEERA
protein stability index (parent: IOH40237_11): 2.54

B13: HESX1 WT (peptide)
chain: SKYENYFSASERLSLKRELSWYRG
protein stability index (parent: IOH40237_15): 1.92

B14: CCDC70 WT (peptide)
chain: FSFKVSRWMGLACFRSLAASSPSI
protein stability index (parent: IOH40382_3): 2.79

B15: VPS39 WT (peptide)
chain: TTLLKCYLHTNVALVAPLLRLENN
protein stability index (parent: IOH40537_76): 3.28

B16: VPS39 WT (peptide)
chain: LRLENNHCHIEESEHVLKKAHKYS
protein stability index (parent: IOH40537_79): 2.32

B17: VPS39 WT (peptide)
chain: QQVKCIITEEKVCMVCKKKIGNSA
protein stability index (parent: IOH40537_139): 2.82

B18: VPS39 WT (peptide)
chain: ITEEKVCMVCKKKIGNSAFARYPN
protein stability index (parent: IOH40537_140): 2.44

B19: TRIM55 WT (peptide)
chain: YKSFSKEQQTMDNLEKQLICPICL
protein stability index (parent: IOH40604_2): 2.08

B20: TRIM55 WT (peptide)
chain: ICPICLEMFTKPVVILPCQHNLCR
protein stability index (parent: IOH40604_5): 2.21

B21: TRIM55 WT (peptide)
chain: FQASNPYLPTRGGTTMASGGRFRC
protein stability index (parent: IOH40604_10): 1.74

B22: TRIM55 WT (peptide)
chain: YLPTRGGTTMASGGRFRCPSCRHE
protein stability index (parent: IOH40604_11): 1.83

B23: TRIM55 WT (peptide)
chain: FQMEKIEHGYENMNHFTVNLNREE
protein stability index (parent: IOH40604_50): 2.79

B24: CCNC WT (peptide)
chain: QSSHYLQWILDKQDLLKERQKDLK
protein stability index (parent: IOH40631_2): 3.21

B25: ZNF232 WT (peptide)
chain: FPKSEQVYLHFLSVVTEDGPEPKD
protein stability index (parent: IOH40635_35): 2.15

B26: ZNF232 WT (peptide)
chain: HSGEKPFICKECGKAYGWCSELIR
protein stability index (parent: IOH40635_69): 2.02

B27: ZNF232 WT (peptide)
chain: GKAYGWCSELIRHRRVHARKEPSH
protein stability index (parent: IOH40635_71): 2.85

B28: C20orf112 WT (peptide)
chain: YANGGLNYSYRGYGALSSNLQPPA
protein stability index (parent: IOH40687_56): 2.06

B29: TRIM35 WT (peptide)
chain: WEVQVSPTCPVCKDRASPADLRTN
protein stability index (parent: IOH40792_9): 2.54

B30: TRIM35 WT (peptide)
chain: PTCPVCKDRASPADLRTNHTLNNL
protein stability index (parent: IOH40792_10): 2.83

B31: TRIM35 WT (peptide)
chain: DKELLCCSCQADPRHQGHRVQPVK
protein stability index (parent: IOH40792_20): 3.56

B32: SLC2A12 WT (peptide)
chain: CLLGLGSLVLILSLSYTVLIVGRI
protein stability index (parent: IOH40813_20): 3.34

B33: SLC2A12 WT (peptide)
chain: TRIMIGLTLVFFVQITGQPNILFY
protein stability index (parent: IOH40813_47): 3.31

B34: SLC2A12 WT (peptide)
chain: LTLVFFVQITGQPNILFYASTVLK
protein stability index (parent: IOH40813_48): 2.98

B35: FUNDC2 WT (peptide)
chain: YIKVDWQRVEKDMKKAKEQLKIRK
protein stability index (parent: IOH40818_22): 1.68

B36: KLHL13 WT (peptide)
chain: GVSKVGLRKIIDFIYTAKLSLNMD
protein stability index (parent: IOH40892_24): 2.67

B37: KLHL13 WT (peptide)
chain: TGEFLKLPFERLAFVLSSNSLKHC
protein stability index (parent: IOH40892_39): 2.65

B38: RTN1 WT (peptide)
chain: VVAYLALAALSATISFRIYKSVLQ
protein stability index (parent: IOH40898_10): 3.02

B39: ALDH8A1 WT (peptide)
chain: WSSRSPQERSRVLNQVADLLEQSL
protein stability index (parent: IOH41048_11): 2.54

B40: ALDH8A1 WT (peptide)
chain: FTGSQPTAERITQLSAPHCKKLSL
protein stability index (parent: IOH41048_39): 2.08

B41: ALDH8A1 WT (peptide)
chain: RVAKKLQSGLVWTNCWLIRELNLP
protein stability index (parent: IOH41048_73): 2.99

B42: RAD51 WT (peptide)
chain: APKKELINIKGISEAKADKILAEA
protein stability index (parent: IOH41191_10): 4.71

B43: RAD51 WT (peptide)
chain: RFLRMLLRLADEFGVAVVITNQVV
protein stability index (parent: IOH41191_42): 2.39

B44: OAS1 WT (peptide)
chain: TPAKSLDKFIEDYLLPDTCFRMQI
protein stability index (parent: IOH41283_2): 2.79

B45: OAS1 WT (peptide)
chain: LQLGEGVEFDVLPAFDALGQLTGG
protein stability index (parent: IOH41283_24): 1.9

B46: OAS1 WT (peptide)
chain: LTVYAWERGSMKTHFNTAQGFRTV
protein stability index (parent: IOH41283_40): 2.27

B47: OAS1 WT (peptide)
chain: YIGTHEYPHFSHRPSTLQAASTPQ
protein stability index (parent: IOH41283_62): 1.94

B48: TBC1D10A WT (peptide)
chain: WCLVQICEKYLPGYYSEKLEAIQL
protein stability index (parent: IOH41348_37): 2.8

B49: ZNF75A WT (peptide)
chain: RTHTGEQPYTCSICRRNFSRRSSL
protein stability index (parent: IOH41486_45): 2.88

B50: IFRG15 WT (peptide)
chain: INRADYCPECYPDNPANRSLVLPW
protein stability index (parent: IOH41552_8): 2.18

B51: FAM9B WT (peptide)
chain: EDLTAKRKRMKMDKTCSKTKNKSK
protein stability index (parent: IOH41618_11): 4.96

B52: FBXO34 WT (peptide)
chain: ASSVESTLPVLEASSWKKQVSHDF
protein stability index (parent: IOH41760_90): 3

B53: FBXO34 WT (peptide)
chain: PRYREDPCKQCKKKYVKGDVSLCR
protein stability index (parent: IOH41760_105): 2.57
